This passage reports specific activity results from US20240182408A1, “DRIED PRENCSO COMPOSITION” (HOUSE FOODS GROUP INC., priority 2021, published 2024).

This data set in a line: specific activity of LFS. Format: biochemical. Particulars: rLFS used in Examples.

B1: rLFS: recombinant lachrymatory factor synthase (E2-3) produced in E. coli, GST tag removed (protein, UniProt P59082 13-169, looked up)
Lachrymatory-factor synthase: DSANGARKWSGKVHALLPNTKPEQAWTLLKDFINLHKVMPSLSVCELVEGEANVVGCVRYVKGIMHPIEEEFWAKEKLVALDNKNMSYSYIFTECFTGYEDYTATMQIVEGPEHKGSRFDWSFQCKYIEGMTESAFTEILQHWATEIGQKIEEVCSA
In the case of B1, the specific activity is reported as 6.0×10^6 area/μg.
